Experimental data published in US20020111476A1 (published 2002).

Biological target: the molecule itself
Experiment: preliminary analysis of molecular form; method not detailed

B1: Mouse cysteine rich soluble protein 2 (C2) (ligand)
chain: DETIEIIVENKVKELLANPANYPSTVTKTLSCTSVKTMNRWASCPAGMTATGCACGFACGSWEIQSGDTCNCLCLLVDWTTARCCQLS
notes: the copy number is not fixed; also called mC2; mouse C2
binding result: binds
